Experimental data: patent US20140087995A1 (published 2014)
Numbered stars: 1 amine (or outer) side, 2 acyl side, 3 side chain; on linkers, the order of the positions; unused ones are H or OH. Bridge positions count the residues as written; N and C are the ends. Side chains are listed from the residue outwards. Ends that are not written are not given here. * marks the point of attachment. C20 diacid = O=C(O)CCCCCCCCCCCCCCCCCCC(=O)*; γGlu = O=C(O)[C@H](CCC(=O)[*:2])N[*:1]

T1: human amylin receptor (human, UniProt P30988 25-474; O60896 24-148, limits assumed)
T1 construct: whole, on cells; Calcitonin receptor plus RAMP-3 gives the amylin 3(a) receptor; membranes of Amylin 3(a)/CRE-luc cells were used; also called hAmylin-R; hAmylinR
T1 sequence (looked up) 1: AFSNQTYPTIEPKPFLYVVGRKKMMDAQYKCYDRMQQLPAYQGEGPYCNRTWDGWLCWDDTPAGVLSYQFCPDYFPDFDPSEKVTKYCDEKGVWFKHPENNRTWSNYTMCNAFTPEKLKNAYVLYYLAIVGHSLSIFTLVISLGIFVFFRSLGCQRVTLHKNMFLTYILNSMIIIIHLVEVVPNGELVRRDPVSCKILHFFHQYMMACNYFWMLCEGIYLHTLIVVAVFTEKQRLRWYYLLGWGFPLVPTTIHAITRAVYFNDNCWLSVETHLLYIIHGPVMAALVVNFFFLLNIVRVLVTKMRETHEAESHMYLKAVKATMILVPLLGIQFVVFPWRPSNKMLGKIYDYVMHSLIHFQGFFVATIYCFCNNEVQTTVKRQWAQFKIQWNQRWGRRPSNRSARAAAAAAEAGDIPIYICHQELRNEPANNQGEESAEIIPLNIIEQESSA
T1 sequence (looked up) 2: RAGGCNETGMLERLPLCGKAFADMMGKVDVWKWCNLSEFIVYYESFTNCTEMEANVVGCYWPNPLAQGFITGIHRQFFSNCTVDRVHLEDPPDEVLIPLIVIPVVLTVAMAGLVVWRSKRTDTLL

B1: N^ε1-[(4S)-4-carboxy-4-(19-carboxynonadecanoylamino)butanoyl]-[Glu14,Arg17,Pro21,Pro27,Pro34,Arg35]-h-amylin (peptide)
peptide: K([γGlu-C20 diacid])CNTATCATQRLAEFLRHSSPNFGAIPSSTNVGPRTY-NH2
modifications: disulfide 2-7; N-terminus assumed
SMILES: CC[C@H](C)[C@H](NC(=O)[C@H](C)NC(=O)CNC(=O)[C@H](Cc1ccccc1)NC(=O)[C@H](CC(N)=O)NC(=O)[C@@H]1CCCN1C(=O)[C@H](CO)NC(=O)[C@H](CO)NC(=O)[C@H](Cc1c[nH]cn1)NC(=O)[C@H](CCCNC(=N)N)NC(=O)[C@H](CC(C)C)NC(=O)[C@H](Cc1ccccc1)NC(=O)[C@H](CCC(=O)O)NC(=O)[C@H](C)NC(=O)[C@H](CC(C)C)NC(=O)[C@H](CCCNC(=N)N)NC(=O)[C@H](CCC(N)=O)NC(=O)[C@@H](NC(=O)[C@H](C)NC(=O)[C@@H]1CSSC[C@H](NC(=O)[C@@H](N)CCCCNC(=O)CC[C@H](NC(=O)CCCCCCCCCCCCCCCCCCC(=O)O)C(=O)O)C(=O)N[C@@H](CC(N)=O)C(=O)N[C@@H]([C@@H](C)O)C(=O)N[C@@H](C)C(=O)N[C@@H]([C@@H](C)O)C(=O)N1)[C@@H](C)O)C(=O)N1CCC[C@H]1C(=O)N[C@@H](CO)C(=O)N[C@@H](CO)C(=O)N[C@H](C(=O)N[C@@H](CC(N)=O)C(=O)N[C@H](C(=O)NCC(=O)N1CCC[C@H]1C(=O)N[C@@H](CCCNC(=N)N)C(=O)N[C@H](C(=O)N[C@@H](Cc1ccc(O)cc1)C(N)=O)[C@@H](C)O)C(C)C)[C@@H](C)O
notes: also called 14E, 17R, 21P, 27P, 34P, 35R
B2: N^ε1-[(4S)-4-carboxy-4-(19-carboxynonadecanoylamino)butanoyl]-[Glu14,Arg17,Pro21,Pro27,Pro34,Glu35]-h-amylin (peptide)
peptide: K([γGlu-C20 diacid])CNTATCATQRLAEFLRHSSPNFGAIPSSTNVGPETY-NH2
modifications: disulfide 2-7; N-terminus assumed
SMILES: CC[C@H](C)[C@H](NC(=O)[C@H](C)NC(=O)CNC(=O)[C@H](Cc1ccccc1)NC(=O)[C@H](CC(N)=O)NC(=O)[C@@H]1CCCN1C(=O)[C@H](CO)NC(=O)[C@H](CO)NC(=O)[C@H](Cc1c[nH]cn1)NC(=O)[C@H](CCCNC(=N)N)NC(=O)[C@H](CC(C)C)NC(=O)[C@H](Cc1ccccc1)NC(=O)[C@H](CCC(=O)O)NC(=O)[C@H](C)NC(=O)[C@H](CC(C)C)NC(=O)[C@H](CCCNC(=N)N)NC(=O)[C@H](CCC(N)=O)NC(=O)[C@@H](NC(=O)[C@H](C)NC(=O)[C@@H]1CSSC[C@H](NC(=O)[C@@H](N)CCCCNC(=O)CC[C@H](NC(=O)CCCCCCCCCCCCCCCCCCC(=O)O)C(=O)O)C(=O)N[C@@H](CC(N)=O)C(=O)N[C@@H]([C@@H](C)O)C(=O)N[C@@H](C)C(=O)N[C@@H]([C@@H](C)O)C(=O)N1)[C@@H](C)O)C(=O)N1CCC[C@H]1C(=O)N[C@@H](CO)C(=O)N[C@@H](CO)C(=O)N[C@H](C(=O)N[C@@H](CC(N)=O)C(=O)N[C@H](C(=O)NCC(=O)N1CCC[C@H]1C(=O)N[C@@H](CCC(=O)O)C(=O)N[C@H](C(=O)N[C@@H](Cc1ccc(O)cc1)C(N)=O)[C@@H](C)O)C(C)C)[C@@H](C)O
notes: also called 14E, 17R, 21P, 27P, 34P, 35E
B3: N^ε1-[(4S)-4-carboxy-4-(19-carboxynonadecanoylamino)butanoyl]-[His14,Arg17,Pro21,Pro27,His35]-h-amylin (peptide)
peptide: K([γGlu-C20 diacid])CNTATCATQRLAHFLRHSSPNFGAIPSSTNVGSHTY-NH2
modifications: disulfide 2-7; N-terminus assumed
SMILES: CC[C@H](C)[C@H](NC(=O)[C@H](C)NC(=O)CNC(=O)[C@H](Cc1ccccc1)NC(=O)[C@H](CC(N)=O)NC(=O)[C@@H]1CCCN1C(=O)[C@H](CO)NC(=O)[C@H](CO)NC(=O)[C@H](Cc1c[nH]cn1)NC(=O)[C@H](CCCNC(=N)N)NC(=O)[C@H](CC(C)C)NC(=O)[C@H](Cc1ccccc1)NC(=O)[C@H](Cc1c[nH]cn1)NC(=O)[C@H](C)NC(=O)[C@H](CC(C)C)NC(=O)[C@H](CCCNC(=N)N)NC(=O)[C@H](CCC(N)=O)NC(=O)[C@@H](NC(=O)[C@H](C)NC(=O)[C@@H]1CSSC[C@H](NC(=O)[C@@H](N)CCCCNC(=O)CC[C@H](NC(=O)CCCCCCCCCCCCCCCCCCC(=O)O)C(=O)O)C(=O)N[C@@H](CC(N)=O)C(=O)N[C@@H]([C@@H](C)O)C(=O)N[C@@H](C)C(=O)N[C@@H]([C@@H](C)O)C(=O)N1)[C@@H](C)O)C(=O)N1CCC[C@H]1C(=O)N[C@@H](CO)C(=O)N[C@@H](CO)C(=O)N[C@H](C(=O)N[C@@H](CC(N)=O)C(=O)N[C@H](C(=O)NCC(=O)N[C@@H](CO)C(=O)N[C@@H](Cc1c[nH]cn1)C(=O)N[C@H](C(=O)N[C@@H](Cc1ccc(O)cc1)C(N)=O)[C@@H](C)O)C(C)C)[C@@H](C)O
notes: also called 14H, 17R, 21P, 27P, 35H
B4: N^ε1-[(4S)-4-carboxy-4-(19-carboxynonadecanoylamino)butanoyl]-[Glu14,Arg17,Pro21,Pro27,Pro34,Pro37]-h-amylin (peptide)
peptide: K([γGlu-C20 diacid])CNTATCATQRLAEFLRHSSPNFGAIPSSTNVGPNTP-NH2
modifications: disulfide 2-7; N-terminus assumed
SMILES: CC[C@H](C)[C@H](NC(=O)[C@H](C)NC(=O)CNC(=O)[C@H](Cc1ccccc1)NC(=O)[C@H](CC(N)=O)NC(=O)[C@@H]1CCCN1C(=O)[C@H](CO)NC(=O)[C@H](CO)NC(=O)[C@H](Cc1c[nH]cn1)NC(=O)[C@H](CCCNC(=N)N)NC(=O)[C@H](CC(C)C)NC(=O)[C@H](Cc1ccccc1)NC(=O)[C@H](CCC(=O)O)NC(=O)[C@H](C)NC(=O)[C@H](CC(C)C)NC(=O)[C@H](CCCNC(=N)N)NC(=O)[C@H](CCC(N)=O)NC(=O)[C@@H](NC(=O)[C@H](C)NC(=O)[C@@H]1CSSC[C@H](NC(=O)[C@@H](N)CCCCNC(=O)CC[C@H](NC(=O)CCCCCCCCCCCCCCCCCCC(=O)O)C(=O)O)C(=O)N[C@@H](CC(N)=O)C(=O)N[C@@H]([C@@H](C)O)C(=O)N[C@@H](C)C(=O)N[C@@H]([C@@H](C)O)C(=O)N1)[C@@H](C)O)C(=O)N1CCC[C@H]1C(=O)N[C@@H](CO)C(=O)N[C@@H](CO)C(=O)N[C@H](C(=O)N[C@@H](CC(N)=O)C(=O)N[C@H](C(=O)NCC(=O)N1CCC[C@H]1C(=O)N[C@@H](CC(N)=O)C(=O)N[C@H](C(=O)N1CCC[C@H]1C(N)=O)[C@@H](C)O)C(C)C)[C@@H](C)O
notes: also called 14E, 17R, 21P, 27P, 34P, 37P
B5: N^ε1-[(4S)-4-carboxy-4-(19-carboxynonadecanoylamino)butanoyl]-[His14,Arg17,Pro21,Pro27,Pro31,Pro34]-h-amylin (peptide)
peptide: K([γGlu-C20 diacid])CNTATCATQRLAHFLRHSSPNFGAIPSSTPVGPNTY-NH2
modifications: disulfide 2-7; N-terminus assumed
SMILES: CC[C@H](C)[C@H](NC(=O)[C@H](C)NC(=O)CNC(=O)[C@H](Cc1ccccc1)NC(=O)[C@H](CC(N)=O)NC(=O)[C@@H]1CCCN1C(=O)[C@H](CO)NC(=O)[C@H](CO)NC(=O)[C@H](Cc1c[nH]cn1)NC(=O)[C@H](CCCNC(=N)N)NC(=O)[C@H](CC(C)C)NC(=O)[C@H](Cc1ccccc1)NC(=O)[C@H](Cc1c[nH]cn1)NC(=O)[C@H](C)NC(=O)[C@H](CC(C)C)NC(=O)[C@H](CCCNC(=N)N)NC(=O)[C@H](CCC(N)=O)NC(=O)[C@@H](NC(=O)[C@H](C)NC(=O)[C@@H]1CSSC[C@H](NC(=O)[C@@H](N)CCCCNC(=O)CC[C@H](NC(=O)CCCCCCCCCCCCCCCCCCC(=O)O)C(=O)O)C(=O)N[C@@H](CC(N)=O)C(=O)N[C@@H]([C@@H](C)O)C(=O)N[C@@H](C)C(=O)N[C@@H]([C@@H](C)O)C(=O)N1)[C@@H](C)O)C(=O)N1CCC[C@H]1C(=O)N[C@@H](CO)C(=O)N[C@@H](CO)C(=O)N[C@H](C(=O)N1CCC[C@H]1C(=O)N[C@H](C(=O)NCC(=O)N1CCC[C@H]1C(=O)N[C@@H](CC(N)=O)C(=O)N[C@H](C(=O)N[C@@H](Cc1ccc(O)cc1)C(N)=O)[C@@H](C)O)C(C)C)[C@@H](C)O
notes: also called 14H, 17R, 21P, 27P, 31P, 34P
B6: N^ε1-[(4S)-4-carboxy-4-(19-carboxynonadecanoylamino)butanoyl]-[Glu14,Arg17,Pro21,Pro27,Pro34,His35]-h-amylin (peptide)
peptide: K([γGlu-C20 diacid])CNTATCATQRLAEFLRHSSPNFGAIPSSTNVGPHTY-NH2
modifications: disulfide 2-7
notes: also called 14E, 17R, 21P, 27P, 34P, 35H
B7: N^ε1-[(4S)-4-carboxy-4-(19-carboxynonadecanoylamino)butanoyl]-[His14,Arg17,Pro21,Pro27,His34]-h-amylin (peptide)
peptide: K([γGlu-C20 diacid])CNTATCATQRLAHFLRHSSPNFGAIPSSTNVGHNTY-NH2
modifications: disulfide 2-7; N-terminus assumed
SMILES: CC[C@H](C)[C@H](NC(=O)[C@H](C)NC(=O)CNC(=O)[C@H](Cc1ccccc1)NC(=O)[C@H](CC(N)=O)NC(=O)[C@@H]1CCCN1C(=O)[C@H](CO)NC(=O)[C@H](CO)NC(=O)[C@H](Cc1c[nH]cn1)NC(=O)[C@H](CCCNC(=N)N)NC(=O)[C@H](CC(C)C)NC(=O)[C@H](Cc1ccccc1)NC(=O)[C@H](Cc1c[nH]cn1)NC(=O)[C@H](C)NC(=O)[C@H](CC(C)C)NC(=O)[C@H](CCCNC(=N)N)NC(=O)[C@H](CCC(N)=O)NC(=O)[C@@H](NC(=O)[C@H](C)NC(=O)[C@@H]1CSSC[C@H](NC(=O)[C@@H](N)CCCCNC(=O)CC[C@H](NC(=O)CCCCCCCCCCCCCCCCCCC(=O)O)C(=O)O)C(=O)N[C@@H](CC(N)=O)C(=O)N[C@@H]([C@@H](C)O)C(=O)N[C@@H](C)C(=O)N[C@@H]([C@@H](C)O)C(=O)N1)[C@@H](C)O)C(=O)N1CCC[C@H]1C(=O)N[C@@H](CO)C(=O)N[C@@H](CO)C(=O)N[C@H](C(=O)N[C@@H](CC(N)=O)C(=O)N[C@H](C(=O)NCC(=O)N[C@@H](Cc1c[nH]cn1)C(=O)N[C@@H](CC(N)=O)C(=O)N[C@H](C(=O)N[C@@H](Cc1ccc(O)cc1)C(N)=O)[C@@H](C)O)C(C)C)[C@@H](C)O
notes: also called 14H, 17R, 21P, 27P, 34H

target: T1, human amylin receptor; experiment: SPA competition binding, displacement of 125I-rat amylin from membranes with human amylin 3(a) receptor (Assay V)
Method in brief: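 One-site competition analysis of SPA counts yielded IC₅₀ as a measure of affinity. Membranes were at 35 ng/μL final; incubation was 120 min at 25° C, pH 7.4.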

Row | IC50 [nM] | Binder
1 | 0.163 | B1
2 | 0.14 | B2
3 | 0.396 | B3
4 | 0.214 | B4
5 | 0.082 | B5
6 | 0.179 | B6
7 | 0.271 | B7
